Among the data in article PMC9901739 are stoichiometry N values, retold here.

One may read the stoichiometry N as the number of molecules, sites or subunits per partner or assembly.

The target in this experiment is acetylesterase LgEstI from Lactococcus garvieae (Lactococcus garvieae). In words: SEC; Superdex 200 10/300 GL; 20 mM Tris-HCl pH 8.0, 200 mM NaCl, 1 mM TCEP, 5% glycerol; standard curve from a protein standard mix of 15-600 kDa. A general note: SEC sorts molecules by how far they enter the pores of the column.

The substance “acetylesterase LgEstI from Lactococcus garvieae (enzyme)” had a stoichiometry N of 2.
